± gives the half width of the 95% confidence interval.
Assays:
[1] = folding stability dG unfold from chymotrypsin proteolysis; higher = more stable
Outline: (§1)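 Designed mini-proteins (under 80 residues, no cysteine) in a PA-tagged cDNA display construct were digested with trypsin and chymotrypsin. Each protease was used at 11 concentrations (threefold dilutions) plus a no-protease condition, followed by sequencing. K50 was inferred by Bayesian fitting of sequencing counts, and unfolding free energy was derived against a sequence-predicted unfolded-state K50 and a shared folded-state K50, per protease or combined. Only designs with AlphaFold2 dimer inter-PAE above 15 were kept.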

[2] = folding stability dG unfold (combined trypsin and chymotrypsin); higher = more stable
Outline: as §1

[3] = folding stability dG unfold from trypsin proteolysis; higher = more stable
Outline: as §1

Sequence	folding stability dG unfold [1] [kcal/mol]	folding stability dG unfold [2] [kcal/mol]	folding stability dG unfold [3] [kcal/mol]
SAGGSAPKTVTFTTPKGYPITVTPGDRTVTLTHPDRPLATFDVPPDVPTFTITLPDGDTATITVDDSAGGSA [r2_385_TrMRF]	-0.408 ± 0.19	-0.446 ± 0.11	-0.581 ± 0.088
SAGGSAPPNIEREEYEFYLRNPDGKELGPAKIEVIRDPGDPDRPILTIEWPNGEPMLFDADDIEPLSAGGSA [r15_954_TrROS]	0.384 ± 0.17	0.317 ± 0.19	0.18 ± 0.052
SAGGSAPPPIKIKFKYPNGRPMELEFNPENGNYEIKQPDGEKEEVPMENIKEIRIPPGIKDVEIVPSAGGSA [r15_1043_TrROS]	-0.0709 ± 0.41	< -1	-0.579 ± 0.27
SAGGSAPPPKWIMFKIEATMPPNDLDNVVEELLKILFGFKIKNIEVEWEQVKDGYYKVPVWVMIRFSAGGSA [r15_138_TrROS]	4.05 ± 0.093	4.12 ± 0.4	3.01 ± 0.41
SAGGSAPPTYTFMIPIKEIYVPDPDNGKPKPIPVEEFADFLMPKFGIDVEILDVHPDWIQITVTPDSAGGSA [r15_55_TrROS]	1.49 ± 0.091	1.73 ± 0.19	1.81 ± 0.11
SAGGSAPPVKVDVEELDDDLVKVTVTFPGGPFTLKLYKDGKLLKEETVPEDETATFVLPKDALIVGSAGGSA [r15_581_TrMRF]	1.59 ± 0.064	1.36 ± 0.059	0.847 ± 0.051
SAGGSAPVTEGPNSITVTRDLDPSESEEEVRALAEEILAALPADVSVSVEFDPETGTATITITFPGSAGGSA [r15_210_JUSTAS]	1.95 ± 0.051	2.15 ± 0.055	2.31 ± 0.054
SAGGSAPVTLETEFFGENGLLVRTEAVVDPATGEVTVRTETFPVITGPADNPDVVKKLLEEAGIDASAGGSA [r2_304_TrMRF]	0.817 ± 0.094	0.887 ± 0.23	0.645 ± 0.059
SAGGSARALLEELEVLSEEDRGDFTVVTVKGPAAEYPAEEVRAALEALGIAVEYDPATGEVTVYVASAGGSA [r15_599_JUSTAS]	0.964 ± 0.084	0.69 ± 0.071	-0.0454 ± 0.023
SAGGSARWFLIRIEFVFGGEPRTFSVLIDVDPGEIEIEIPPELQKKGFQIKDIEIWPLPPEDLKKLSAGGSA [r15_853_TrROS]	3.18 ± 0.11	2.84 ± 0.18	2.22 ± 0.04
SAGGSASAEELAAELARRLAEELGLEVTKVEITEVTPDRVVVRVTVTVTLPNGEKVTRELTLVLEPSAGGSA [r15_276_TrROS_Hall]	3.24 ± 0.12	3.05 ± 0.11	2.16 ± 0.054
SAGGSASAPVPTSVSVSVSSDPASGLTTIPTTVTYNGKTFPMSVTTTPSGTVVTKVGGSTFTVPAASAGGSA [r15_507_JUSTAS]	-0.286 ± 0.11	-0.0606 ± 0.077	0.0583 ± 0.075
SAGGSASIKVTYRFPPDTTVEQAIEDLIAYLEAQTNVKISIPSYTVEREGDYLLVTADILIEPLPESAGGSA [r15_105_TrMRF]	4.61 ± 0.056	4.59 ± 0.073	4.18 ± 0.086
SAGGSASLASLRKVGETVTYTITPDGTLTVTTHTFYRDPVTGELVVESTTTTTPIPPGDAAALAALSAGGSA [r15_207_JUSTAS]	2.37 ± 0.054	2.5 ± 0.098	2.72 ± 0.072
SAGGSASLEELAEKLREKLPPEEAEKLRELLKELEEKGYEIVEIRIEVLPNGEKKVTIKLKVKKKPSAGGSA [r15_613_TrROS_Hall]	3.32 ± 0.26	3.41 ± 0.17	3.34 ± 0.2
SAGGSASLEEVASLPASALAAAAGLTALSVEVTREPDGTVTVTIETRPPDGPVVTVTYTFPVDPAASAGGSA [r15_805_JUSTAS]	2.6 ± 0.098	2.06 ± 0.39	0.848 ± 0.2
SAGGSASLNLTPDDNVTLTVSTPDGSGATVEVKVEKLPDGTIKLTETVTWPDGTVSTRTSTISTKASAGGSA [r15_476_JUSTAS]	0.598 ± 0.028	0.893 ± 0.041	1.08 ± 0.045
SAGGSASMARVEAIAEEIAPRLKAEGRPIARIEVTATRLPDGTVVVPITLTTPDGTPVYTFEVVVESAGGSA [r15_232_JUSTAS]	1.74 ± 0.032	1.48 ± 0.058	1.03 ± 0.051
SAGGSASMSKTTTETSPDSETTTTTYYPNGTVTTTKTTTVGEGTTTTTTTTKVLFIPGPGVLVPEPSAGGSA [r15_746_JUSTAS]	0.514 ± 0.062	0.259 ± 0.046	-0.174 ± 0.045
SAGGSASMVEEEVTLQKKVKSEEEALKFAEEVKESNPHVKTVEVSLEKLPDGSILVNVTIKRILKPSAGGSA [r15_726_JUSTAS]	3.31 ± 0.093	4.21 ± 0.29	4.43 ± 0.4
SAGGSASNLKVTYKITIGSTTITVTLPEGSEKELKKIPNAEVTPISEIEPAPPPILYFKFENNNLVSAGGSA [r15_443_JUSTAS]	1.25 ± 0.17	1.09 ± 0.089	0.739 ± 0.047

Sequence	folding stability dG unfold [1] [kcal/mol]	folding stability dG unfold [2] [kcal/mol]	folding stability dG unfold [3] [kcal/mol]
SAGGSASPEKVAEELKKKGYKEVKITKDPNTNVTTVTVEDPSGKKYTLTVDPKNPTVVSKKEFSLDSAGGSA [r15_648_JUSTAS]	1.51 ± 0.096	1.25 ± 0.14	0.926 ± 0.043
SAGGSASRRLFVRTLPDDAVIVVEVPPGMSEEEAVEIAERRAEAAERVLRAAIEAERAGKAPVIPLSAGGSA [r15_704_TrMRF]	-0.0499 ± 0.29	0.342 ± 0.11	0.594 ± 0.13
SAGGSASSMLSPSLYVTTITVKKPGGMTVTETVPGTPEEVERLIEELKKKGLEVEKVDVVPVSELVSAGGSA [r15_640_JUSTAS]	1.47 ± 0.034	1.66 ± 0.058	1.9 ± 0.062
SAGGSASSYGIEIEFSEDPNSKTKKITITVTRPDGTVETVTITNPDITDEEAKKIGEELANEVANSSAGGSA [r15_526_JUSTAS]	1.93 ± 0.02	2.06 ± 0.059	2.19 ± 0.055
SAGGSASVTTTVTLPNGEVVTITFDPANPTTATLSFPDGTTVTLSFSSPEEALARAIEELLAGKPLSAGGSA [r15_38_JUSTAS]	2.01 ± 0.056	2.48 ± 0.081	2.99 ± 0.1
SAGGSATAEELADEIANYMADRHGMEVKKIEITDVDNDRVVFRAEVEMPNPNGKKHTHPFTIEIPVSAGGSA [r15_276_TrROS]	0.303 ± 0.31	0.226 ± 0.29	-0.0958 ± 0.17
SAGGSATIEEKIRNIAKEQGFPVTDVQVRRTPGKVYIMFQAKDPRMYYIEIDNDKIKIMPAEDIKPSAGGSA [r15_901_TrROS]	1.57 ± 0.064	1.36 ± 0.06	1.14 ± 0.027
SAGGSATLKEIAKEIEKTVKPKYAKKLAKTIEEAVKKGYEIKKIIIEKPKDDSFKATIYLKKPNDPSAGGSA [r15_613_TrMRF]	0.294 ± 0.45	0.66 ± 0.27	0.676 ± 0.14
SAGGSATLPEKILEELAAAGYPLEYVTITEVKTEERPGSVVVTVKVEYKVPNSDRIETVNLTVPRPSAGGSA [r15_863_JUSTAS]	1.68 ± 0.029	1.73 ± 0.036	1.71 ± 0.032
SAGGSATLTLEAEFRLEDGTTVRVRVEVSPDGTVRIEVEVLPAPPPPPKVEVKEVFTTADGRKVLLSAGGSA [r2_78_TrROS_Hall]	1.62 ± 0.063	1.57 ± 0.1	1.2 ± 0.035
SAGGSATPKDPDGKEWKPIAVIDIEEMRPETLKELLEENKGPIWIHPPGEGKPFWIPADEIEDMIDSAGGSA [r15_904_TrROS]	-0.129 ± 0.2	0.336 ± 0.21	0.668 ± 0.054
SAGGSATQVVLKITIKINKGEKEETREIVLPATDPEEAIAKVKKELKEKGIDAEIEELEILPVDLLSAGGSA [r15_165_JUSTAS]	0.919 ± 0.059	1.27 ± 0.15	1.31 ± 0.089
SAGGSAVERLRELLKELGVEVTVERKDGKVYIRVEASPEKREKLAEALRELFGKDIEIEVLEEGEEPSAGGS [r16_514_TrROS_Hall]	3.17 ± 0.073	3.49 ± 0.08	3.86 ± 0.18
SAGGSAVIEFELELRTRPDGSVEEEEIIAEARELIEAIPEAENAEILEIRREAFPDGTVRYHVRVRVPSAGG [r13_462_TrMRF]	3.01 ± 0.036	3.19 ± 0.072	3.46 ± 0.072
SAGGSAVKIDPKTKVIEVKNPETGETYRISLPDVPPEDGVEVEVGDDKIIIKTPKGTKEIPIDKAKSAGGSA [r15_864_TrMRF]	0.794 ± 0.18	0.529 ± 0.25	-0.000856 ± 0.16
SAGGSAVPAEAKKKVFLKPVKVNIPLPGNYEIVEIDPKTGKIVIKVPGSSKTLVVDLKSGKVYEFGSAGGSA [r15_452_TrMRF]	1.78 ± 0.085	1.51 ± 0.14	1.19 ± 0.061
SAGGSAVSISTVTSTSFPGSGTSVKTYETPDFTVTVTTTRDPNGADTVEIHTDDPEAEKTVREYLASAGGSA [r15_42_JUSTAS]	-0.348 ± 0.28	0.337 ± 0.14	0.601 ± 0.049
SAGGSAVVVTTDPNGTLTVYADNKVVKVKVIPLPRPDPLTGSTSTLLLVEVEVSPLKPDPLPPEFPSAGGSA [r15_515_TrMRF]	2.65 ± 0.12	2.44 ± 0.2	2.21 ± 0.2
SAGGSAYGYFYEYKIRFNGQDLSIALPAGDMEKLKDLPGVEIEPRRPEEPPPPPKEEERDPDGKKKSAGGSA [r15_443_TrROS]	2.98 ± 0.071	2.8 ± 0.24	2.3 ± 0.18
SAGGSDEHEYKGTGRDPDNGQTREETYRVEPVVPPIPISISVSLNLDIDPNGNLNWDFNISIGIGISAGGSA [r2_326_TrROS]	3.81 ± 0.33	3.33 ± 0.37	2.78 ± 0.2
SAGGSDGEMITYPFLLPDGYLITIWISPENGQITEIEIMPIPAPPPEPPVEPKYGRDDGNGNKKYDSAGGSA [r2_78_TrROS]	1.72 ± 0.088	1.52 ± 0.16	1.14 ± 0.047

From the supplement of paper PMC12764529
